# Source: PMC11077064, “The origin recognition complex requires chromatin tethering by a hypervariable intrinsically disordered region that is functionally conserved from sponge to man”
# Several values for one entry are separate records, joined by “and”; a condition that tells them apart may be missing. Identical values can stand only once.
# T1: DmOrc1 IDR delta1 (Drosophila melanogaster, UniProt O16810 247-549, del187-246)
# T1 sequence: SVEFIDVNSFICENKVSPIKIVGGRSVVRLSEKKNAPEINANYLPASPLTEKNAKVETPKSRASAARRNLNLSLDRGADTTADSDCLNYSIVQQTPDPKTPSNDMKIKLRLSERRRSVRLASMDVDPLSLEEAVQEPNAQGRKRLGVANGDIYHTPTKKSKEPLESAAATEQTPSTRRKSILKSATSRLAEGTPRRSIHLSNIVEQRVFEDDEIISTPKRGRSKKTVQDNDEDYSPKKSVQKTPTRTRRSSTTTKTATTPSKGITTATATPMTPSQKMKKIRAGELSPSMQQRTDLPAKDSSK
# T2: DmOrc1 IDR delta2 (Drosophila melanogaster, UniProt O16810 187-549, del247-306)
# T2 sequence: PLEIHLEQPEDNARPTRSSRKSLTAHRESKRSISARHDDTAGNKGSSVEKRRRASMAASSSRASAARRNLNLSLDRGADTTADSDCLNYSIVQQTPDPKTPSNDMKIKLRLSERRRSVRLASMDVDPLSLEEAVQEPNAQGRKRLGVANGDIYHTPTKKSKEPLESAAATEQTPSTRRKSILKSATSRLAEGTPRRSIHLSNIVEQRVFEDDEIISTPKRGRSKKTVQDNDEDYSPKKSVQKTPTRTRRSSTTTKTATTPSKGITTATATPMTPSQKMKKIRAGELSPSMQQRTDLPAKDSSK
# T3: DmOrc1 IDR delta5 (Drosophila melanogaster, UniProt O16810 187-549, del427-486)
# T3 sequence: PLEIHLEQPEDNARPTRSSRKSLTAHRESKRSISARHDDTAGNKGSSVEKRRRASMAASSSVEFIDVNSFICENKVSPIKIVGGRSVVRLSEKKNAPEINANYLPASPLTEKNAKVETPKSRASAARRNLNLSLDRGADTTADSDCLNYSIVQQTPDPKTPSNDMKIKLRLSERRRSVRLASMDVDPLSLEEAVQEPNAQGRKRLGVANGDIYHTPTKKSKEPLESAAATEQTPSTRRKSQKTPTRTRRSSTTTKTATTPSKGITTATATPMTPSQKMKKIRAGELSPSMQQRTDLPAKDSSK
# T4: DmOrc1 IDR delta6 (Drosophila melanogaster, UniProt O16810 187-486, del487-549)
# T4 sequence: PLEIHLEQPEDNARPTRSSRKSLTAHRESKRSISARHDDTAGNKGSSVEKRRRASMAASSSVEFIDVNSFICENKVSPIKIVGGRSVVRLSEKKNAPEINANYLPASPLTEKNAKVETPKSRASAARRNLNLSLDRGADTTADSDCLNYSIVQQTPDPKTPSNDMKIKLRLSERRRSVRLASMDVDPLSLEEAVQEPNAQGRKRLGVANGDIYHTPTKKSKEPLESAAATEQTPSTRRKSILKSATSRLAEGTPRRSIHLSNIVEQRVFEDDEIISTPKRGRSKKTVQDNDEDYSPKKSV
# T5: DmOrc1 IDR delta4 (Drosophila melanogaster, UniProt O16810 187-549, del367-426)
# T5 sequence: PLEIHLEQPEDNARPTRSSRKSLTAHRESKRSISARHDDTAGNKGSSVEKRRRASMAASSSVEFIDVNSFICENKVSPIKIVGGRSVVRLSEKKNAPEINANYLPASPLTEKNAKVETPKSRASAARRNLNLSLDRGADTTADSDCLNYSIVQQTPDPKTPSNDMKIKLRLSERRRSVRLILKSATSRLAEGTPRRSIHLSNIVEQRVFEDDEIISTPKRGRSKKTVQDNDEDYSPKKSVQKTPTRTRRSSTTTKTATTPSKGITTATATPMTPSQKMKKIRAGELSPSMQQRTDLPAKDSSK
# T6: DmOrc1 IDR delta3 (Drosophila melanogaster, UniProt O16810 187-549, del307-366)
# T6 sequence: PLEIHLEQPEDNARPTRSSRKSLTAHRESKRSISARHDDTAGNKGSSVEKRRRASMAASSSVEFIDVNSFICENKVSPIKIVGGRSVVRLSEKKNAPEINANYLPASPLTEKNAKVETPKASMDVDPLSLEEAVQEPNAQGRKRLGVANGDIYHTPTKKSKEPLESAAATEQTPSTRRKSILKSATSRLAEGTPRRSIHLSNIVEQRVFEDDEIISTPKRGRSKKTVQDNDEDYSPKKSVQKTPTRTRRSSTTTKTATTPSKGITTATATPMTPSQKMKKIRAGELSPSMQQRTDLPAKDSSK
# T7: DmOrc1 IDR delta P (Drosophila melanogaster, UniProt O16810 187-549, S263A;S293A;T304A;T341A;T346A;T401A;T419A;T439A;T463A;S481A;T489A;T505A;T516A;T5 …)
# T7 sequence: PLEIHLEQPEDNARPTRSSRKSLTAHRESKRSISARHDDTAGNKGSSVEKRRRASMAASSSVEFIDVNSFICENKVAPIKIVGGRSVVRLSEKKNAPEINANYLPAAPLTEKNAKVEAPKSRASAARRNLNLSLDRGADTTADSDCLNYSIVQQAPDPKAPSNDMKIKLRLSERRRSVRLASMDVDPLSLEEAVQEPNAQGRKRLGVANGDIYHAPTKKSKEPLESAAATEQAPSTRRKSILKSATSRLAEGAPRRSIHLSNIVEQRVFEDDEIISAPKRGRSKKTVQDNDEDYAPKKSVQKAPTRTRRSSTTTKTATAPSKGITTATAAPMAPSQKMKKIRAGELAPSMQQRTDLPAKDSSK
# T8: DmOrc1 IDR delta BP (Drosophila melanogaster, UniProt O16810 187-549, del520-533)
# T8 sequence: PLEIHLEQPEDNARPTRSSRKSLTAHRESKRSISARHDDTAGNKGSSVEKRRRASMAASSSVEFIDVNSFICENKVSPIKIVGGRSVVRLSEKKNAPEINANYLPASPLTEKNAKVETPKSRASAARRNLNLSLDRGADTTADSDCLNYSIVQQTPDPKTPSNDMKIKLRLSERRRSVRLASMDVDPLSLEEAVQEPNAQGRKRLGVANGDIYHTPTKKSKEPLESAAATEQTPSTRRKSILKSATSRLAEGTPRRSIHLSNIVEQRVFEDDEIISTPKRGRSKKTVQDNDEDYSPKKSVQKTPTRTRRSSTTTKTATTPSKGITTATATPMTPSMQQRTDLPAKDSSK
# T9: DmOrc1 IDR (Drosophila melanogaster, UniProt O16810 187-549)
# T9 sequence: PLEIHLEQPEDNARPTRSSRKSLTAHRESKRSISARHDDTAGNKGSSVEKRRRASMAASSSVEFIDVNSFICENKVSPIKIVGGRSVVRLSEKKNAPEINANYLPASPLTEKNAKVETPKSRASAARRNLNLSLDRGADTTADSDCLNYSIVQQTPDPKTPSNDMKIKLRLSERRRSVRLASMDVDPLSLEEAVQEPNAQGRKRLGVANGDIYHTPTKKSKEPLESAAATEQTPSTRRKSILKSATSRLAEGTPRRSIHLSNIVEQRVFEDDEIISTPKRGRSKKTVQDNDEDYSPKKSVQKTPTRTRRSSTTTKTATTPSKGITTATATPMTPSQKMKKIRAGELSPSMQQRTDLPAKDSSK
# B1: Cy5-dsDNA 60 bp (dsDNA)
# DNA 1: GAAGCTAGACTTAGGTGTCATATTGAACCTACTATGCCGAACTAGTTACGAGCTATAACC
# DNA 2: GGTTATAGCTCGTAACTAGTTCGGCATAGTAGGTTCAATATGACACCTAAGTCTAGCTTC
# How the values were obtained:
# [1] = tested on: AmOrc1 IDR (Acropora millepora); test: fluorescence polarization; conditions: about 100 nM or less; EMSA: 50 mM HEPES pH 7.5, 150 mM K-glutamate, 10% glycerol, 1 mM BME, 2 nM DNA, RT 20 min, 1% agarose; FP: same with 150 or 300 mM K-glutamate, 5 mM MgOAc …
# [2] = tested on: AqOrc1 IDR (Amphimedon queenslandica); test: fluorescence polarization; conditions: about 100 nM or less; EMSA: 50 mM HEPES pH 7.5, 150 mM K-glutamate, 10% glycerol, 1 mM BME, 2 nM DNA, RT 20 min, 1% agarose; FP: same with 150 or 300 mM K-glutamate, 5 mM MgOAc …
# [3] = tested on: DgOrc1 IDR (Dimorphilus gyrociliatus); test: fluorescence polarization; conditions: about 100 nM or less; EMSA: 50 mM HEPES pH 7.5, 150 mM K-glutamate, 10% glycerol, 1 mM BME, 2 nM DNA, RT 20 min, 1% agarose; FP: same with 150 or 300 mM K-glutamate, 5 mM MgOAc …
# [4] = target: DmORC delta1IDR holocomplex Orc1:del248-549 (Drosophila melanogaster) (UniProt O16810+Q24168+Q24169+Q9Y1B2); test: fluorescence polarization; conditions: EMSA: 50 mM HEPES pH 7.5, 150 mM K-glutamate, 10% glycerol, 1 mM BME, 2 nM DNA, RT 20 min, 1% agarose, FP: same with 150 or 300 mM K-glutamate
# Chain of DmORC delta1IDR holocomplex Orc1:del248-549 (Drosophila melanogaster) (O16810 whole entry, stated change not applied, chain 1 of 4): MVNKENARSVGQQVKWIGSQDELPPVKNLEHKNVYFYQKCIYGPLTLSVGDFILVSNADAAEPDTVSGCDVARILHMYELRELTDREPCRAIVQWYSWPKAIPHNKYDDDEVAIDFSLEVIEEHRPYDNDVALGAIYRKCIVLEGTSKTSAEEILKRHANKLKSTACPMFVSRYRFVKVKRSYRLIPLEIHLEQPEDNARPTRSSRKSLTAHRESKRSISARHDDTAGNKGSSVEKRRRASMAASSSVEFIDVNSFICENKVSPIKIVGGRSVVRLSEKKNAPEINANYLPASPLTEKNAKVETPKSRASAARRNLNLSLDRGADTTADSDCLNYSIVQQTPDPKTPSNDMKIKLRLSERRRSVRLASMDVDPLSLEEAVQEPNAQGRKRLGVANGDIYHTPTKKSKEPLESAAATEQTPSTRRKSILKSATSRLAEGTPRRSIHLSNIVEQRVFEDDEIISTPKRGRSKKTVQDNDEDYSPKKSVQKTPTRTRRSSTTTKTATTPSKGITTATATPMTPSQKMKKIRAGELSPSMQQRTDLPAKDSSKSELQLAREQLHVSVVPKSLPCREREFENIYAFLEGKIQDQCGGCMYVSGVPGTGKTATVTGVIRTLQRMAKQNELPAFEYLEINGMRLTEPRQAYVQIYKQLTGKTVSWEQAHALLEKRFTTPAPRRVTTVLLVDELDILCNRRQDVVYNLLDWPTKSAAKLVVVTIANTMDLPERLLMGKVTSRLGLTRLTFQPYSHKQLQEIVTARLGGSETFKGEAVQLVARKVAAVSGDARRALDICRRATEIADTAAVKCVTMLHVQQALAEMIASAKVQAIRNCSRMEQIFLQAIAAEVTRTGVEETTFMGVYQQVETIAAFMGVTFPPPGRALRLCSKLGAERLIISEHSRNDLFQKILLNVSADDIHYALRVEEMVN
# Chain of DmORC delta1IDR holocomplex Orc1:del248-549 (Drosophila melanogaster) (Q24168 whole entry, stated change not applied, chain 2 of 4): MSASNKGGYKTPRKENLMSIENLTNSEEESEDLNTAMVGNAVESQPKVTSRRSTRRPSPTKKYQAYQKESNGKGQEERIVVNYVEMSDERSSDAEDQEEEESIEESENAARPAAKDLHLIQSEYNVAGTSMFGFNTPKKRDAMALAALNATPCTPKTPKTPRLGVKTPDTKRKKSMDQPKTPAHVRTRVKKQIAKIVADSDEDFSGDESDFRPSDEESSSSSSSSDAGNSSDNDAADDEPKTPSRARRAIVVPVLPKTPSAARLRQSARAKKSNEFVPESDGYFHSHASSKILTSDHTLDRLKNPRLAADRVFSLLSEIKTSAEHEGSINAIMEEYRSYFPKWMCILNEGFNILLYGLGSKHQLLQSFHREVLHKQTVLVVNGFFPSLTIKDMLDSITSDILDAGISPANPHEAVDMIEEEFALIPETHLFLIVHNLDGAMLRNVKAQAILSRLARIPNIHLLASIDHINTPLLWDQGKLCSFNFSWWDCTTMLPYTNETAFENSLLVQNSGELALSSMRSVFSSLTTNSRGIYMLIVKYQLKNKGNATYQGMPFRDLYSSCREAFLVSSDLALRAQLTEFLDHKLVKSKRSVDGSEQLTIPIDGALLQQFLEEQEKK
# Chain of DmORC delta1IDR holocomplex Orc1:del248-549 (Drosophila melanogaster) (Q24169 whole entry, stated change not applied, chain 3 of 4): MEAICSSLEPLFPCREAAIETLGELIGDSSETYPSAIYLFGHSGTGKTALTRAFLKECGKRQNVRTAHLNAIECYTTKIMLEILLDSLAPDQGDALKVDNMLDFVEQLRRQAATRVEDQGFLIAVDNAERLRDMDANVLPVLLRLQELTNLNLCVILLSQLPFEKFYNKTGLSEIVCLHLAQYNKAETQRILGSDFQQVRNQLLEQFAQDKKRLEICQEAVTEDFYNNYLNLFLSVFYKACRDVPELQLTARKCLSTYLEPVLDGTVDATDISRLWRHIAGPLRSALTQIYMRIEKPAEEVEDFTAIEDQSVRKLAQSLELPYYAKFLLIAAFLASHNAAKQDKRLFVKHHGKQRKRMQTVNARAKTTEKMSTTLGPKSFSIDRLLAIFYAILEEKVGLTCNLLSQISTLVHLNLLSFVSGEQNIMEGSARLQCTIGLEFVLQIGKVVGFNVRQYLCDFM
# Chain of DmORC delta1IDR holocomplex Orc1:del248-549 (Drosophila melanogaster) (Q9Y1B2 whole entry, stated change not applied, chain 4 of 4): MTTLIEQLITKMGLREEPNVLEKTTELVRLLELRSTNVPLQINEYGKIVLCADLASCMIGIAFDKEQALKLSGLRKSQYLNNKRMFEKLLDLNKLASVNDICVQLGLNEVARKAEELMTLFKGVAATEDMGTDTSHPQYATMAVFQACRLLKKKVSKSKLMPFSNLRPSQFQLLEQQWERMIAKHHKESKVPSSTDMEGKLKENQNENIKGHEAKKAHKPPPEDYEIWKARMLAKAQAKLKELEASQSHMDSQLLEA
# [5] = target: T10, DmORC holocomplex (Orc1-6) (Drosophila melanogaster) (UniProt O16810+Q24168+Q24169+Q9Y1B2); test: fluorescence polarization; conditions: EMSA: 50 mM HEPES pH 7.5, 150 mM K-glutamate, 10% glycerol, 1 mM BME, 2 nM DNA, RT 20 min, 1% agarose; FP: same with 150 or 300 mM K-glutamate, 5 mM MgOAc …
# T10 sequence (O16810 whole entry, chain 1 of 4): as the sequence (O16810 whole entry, stated change not applied, chain 1 of 4) above
# T10 sequence (Q24168 whole entry, chain 2 of 4): as the sequence (Q24168 whole entry, stated change not applied, chain 2 of 4) above
# T10 sequence (Q24169 whole entry, chain 3 of 4): as the sequence (Q24169 whole entry, stated change not applied, chain 3 of 4) above
# T10 sequence (Q9Y1B2 whole entry, chain 4 of 4): as the sequence (Q9Y1B2 whole entry, stated change not applied, chain 4 of 4) above
# [6] = tested on: MyOrc1 IDR (Mizuhopecten yessoensis); test: fluorescence polarization; conditions: about 100 nM or less; EMSA: 50 mM HEPES pH 7.5, 150 mM K-glutamate, 10% glycerol, 1 mM BME, 2 nM DNA, RT 20 min, 1% agarose; FP: same with 150 or 300 mM K-glutamate, 5 mM MgOAc …
# [7] = target: T10, DmORC holocomplex (Orc1-6) (Drosophila melanogaster); test: fluorescence polarization; conditions: EMSA: 50 mM HEPES pH 7.5, 150 mM K-glutamate, 10% glycerol, 1 mM BME, 2 nM DNA, RT 20 min, 1% agarose; FP: same with 150 or 300 mM K-glutamate, 5 mM MgOAc …; remark: listed apart in the source
# DmOrc1 IDR delta1 = target: T1, DmOrc1 IDR delta1; test: EMSA; EMSA: 50 mM HEPES pH 7.5, 150 mM K-glutamate, 10% glycerol, 1 mM BME, 2 nM DNA, RT 20 min, 1% agarose; FP: same with 150 or 300 mM K-glutamate, 5 mM MgOAc, 0 or 1 mM ATP, RT 30 min; conditions: protein: recombinant; tags: His6-MBP removed by TEV; blunt (60-bp duplex)
# DmOrc1 IDR delta2 = target: T2, DmOrc1 IDR delta2; test: as above; conditions: protein: recombinant; tags: His6-MBP removed by TEV; blunt (60-bp duplex)
# DmOrc1 IDR delta5 = target: T3, DmOrc1 IDR delta5; test: as above; conditions: protein: recombinant; tags: His6-MBP removed by TEV; blunt (60-bp duplex)
# DmOrc1 IDR delta6 = target: T4, DmOrc1 IDR delta6; test: as above; conditions: protein: recombinant; tags: His6-MBP removed by TEV; blunt (60-bp duplex)
# DmOrc1 IDR delta4 = target: T5, DmOrc1 IDR delta4; test: as above; conditions: protein: recombinant; tags: His6-MBP removed by TEV; blunt (60-bp duplex)
# DmOrc1 IDR delta3 = target: T6, DmOrc1 IDR delta3; test: as above; conditions: protein: recombinant; tags: His6-MBP removed by TEV; blunt (60-bp duplex)
# DmOrc1 IDR delta P = target: T7, DmOrc1 IDR delta P; test: EMSA; 600 nM; EMSA: 50 mM HEPES pH 7.5, 150 mM K-glutamate, 10% glycerol, 1 mM BME, 2 nM DNA, RT 20 min, 1% agarose; FP: same with 150 or 300 mM K-glutamate, 5 mM MgOAc, 0 or 1 mM ATP, RT 30 min; conditions: protein: recombinant; blunt (60-bp duplex)
# DmOrc1 IDR delta BP = target: T8, DmOrc1 IDR delta BP; test: EMSA; text says FITC, legend Cy5; EMSA: 50 mM HEPES pH 7.5, 150 mM K-glutamate, 10% glycerol, 1 mM BME, 2 nM DNA, RT 20 min, 1% agarose; FP: same with 150 or 300 mM K-glutamate, 5 mM MgOAc, 0 or 1 mM ATP, RT 30 min; conditions: protein: recombinant; tags: His6-MBP removed by TEV; blunt (60-bp duplex)
# DmOrc1 IDR [8] = target: T9, DmOrc1 IDR; test: EMSA; no ATP; text says FITC, legend Cy5; EMSA: 50 mM HEPES pH 7.5, 150 mM K-glutamate, 10% glycerol, 1 mM BME, 2 nM DNA, RT 20 min, 1% agarose; FP: same with 150 or 300 mM K-glutamate, 5 mM MgOAc, 0 or 1 mM ATP, RT 30 min; conditions: protein: recombinant; tags: His6-MBP removed by TEV; blunt (60-bp duplex)
# DmOrc1 IDR [9] = target: T9, DmOrc1 IDR; test: EMSA; unphosphorylated, compared with pOrc1IDR; label not stated; EMSA: 50 mM HEPES pH 7.5, 150 mM K-glutamate, 10% glycerol, 1 mM BME, 2 nM DNA, RT 20 min, 1% agarose; FP: same with 150 or 300 mM K-glutamate, 5 mM MgOAc, 0 or 1 mM ATP, RT 30 min; conditions: protein: recombinant; tags: His6-MBP removed by TEV; blunt (60-bp duplex)
molecule,measurement,setting,value
GAAGCTAGACTTAGGTGTCATATTGAACCTACTATGCCGAACTAGTTACGAGCTATAACC (double strand) [FITC-dsDNA 60 bp],Kd,[1],100 nM
same,Kd,[2],100 nM
same,Kd,[3],100 nM
same,Kd,[4]; 5 mM MgOAc …,19 nM
same,Kd,"[4]; no ATP, 150 mM KGlut, 5 mM MgOAc, severely impaired",> 1000 nM
same,Kd,[5],7 nM
same,Kd,[6],100 nM
same,Kd,[7],6 nM and 34 nM
B1,Kd,DmOrc1 IDR delta1,< 100 nM
same,Kd,DmOrc1 IDR delta2,< 100 nM
same,Kd,DmOrc1 IDR delta5,< 100 nM
same,Kd,DmOrc1 IDR delta6,< 100 nM
same,Kd,DmOrc1 IDR delta4,62 ± 26 nM
same,Kd,DmOrc1 IDR delta3,< 100 nM
same,binding result,DmOrc1 IDR delta P,binds
same,Kd,DmOrc1 IDR delta BP,8 ± 2 nM
same,Kd,DmOrc1 IDR [8],15 ± 4 nM
same,Kd,DmOrc1 IDR [9],21 nM
